In the RNAGym collection of RNA variant scans (doi:10.1093/molbev/msab373):

B1: Azoarcus group I ribozyme (parent)
chain: GUGCCUUGCGCCGGGAAACCACGCAAGGGAUGGUGUCAAAUUCGGCGAAACCUAAGCGCCCGCCCGGGCGUAUGGCAACGCCGAGCCAAGCUUCGGCGCCUGCGCCGAUGAAGGUGUAGAGACUAGACGGCACCCACCUAAGGCAAACGCUAUGGUGAAGGCAUAGUCCAGGGAGUGGCGAAAGUCACACAAACCGG

Variants of: B1
Assay: reverse-splicing fitness (ratio to wild type); higher = more active; in vitro selection; Mg2+ level not given
In short: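 An in vitro group I ribozyme library with randomized positions was T7-transcribed and gel-purified. In triplicate, 10 pmol RNA in EPPS pH 7.5 was reacted with 50 pmoles of a 30-nt RNA substrate for 1 h at 37 °C across several added MgCl2 levels (1–48 mM), then stopped with EDTA. Products were reverse transcribed from a substrate-complementary primer, PCR-amplified and sequenced (HiSeq 4000). Fitness is a variant's read proportion after selection over that before, normalised to wild type.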

Q: For GUGCCUUGCGCCGGGAAACCACGCAAGGGAUGGUGUCAAAUUCGGCGAAACCUAAGCGCCCGCCCGGGCGUAUGGCAACGCAGAGCCAAGCUUCGGCGCCUGCGCCGAUGGAGGUGUAGAGACUAGACGGCACCCACCUAAGGCAAACGCUAUGGUGAAGGCAUAGUCAAGGGAGUGGCGAAAGUCACACAAACCGG, which reverse-splicing fitness is on record?
A: The reverse-splicing fitness was 0.00855.

Q: Which reverse-splicing fitness does the source give for GUGCCUUGCGCCGGGAAACCACGCAAGGGAUGGUGUCAAAUUCGGCGAAACCUAAGCGCCCGCCCGGGCGUAUGGCAACGCAGAGCCAAGCUUCGGCGCCUGCGCCGAUGGAGGUGUAGAGACUAGACGGCACCCACCUAAGGCAAACGCUAUGGUGAAGGCAUAGUCAAGGGAGAGGCGAAAGUCACACAAACCGG here?
A: The reverse-splicing fitness was 0.0155.

Q: For GUGCCUUGCGCCGGGAAACCACGCAAGGGAUGGUGUCAAAUUCGGCGAAACCUAAGCGCCCGCCCGGGCGUAUGGCAACGCAGAGCCAAGCUUCGGCGCCUGCGCCGAUGGAGGUGUAGAGACUAGACGGCACCCACCUAAGGCAAACGCUAUGGUGAAGGCAUAGUCAAGGGAGCGGCGAAAGUCACACAAACCGG, which reverse-splicing fitness is on record?
A: Its reverse-splicing fitness is 0.019.

Q: For GUGCCUUGCGCCGGGAAACCACGCAAGGGAUGGUGUCAAAUUCGGCGAAACCUAAGCGCCCGCCCGGGCGUAUGGCAACGCAGAGCCAAGCUUCGGCGCCUGCGCCGAUGGAGGUGUAGAGACUAGACGGCACCCACCUAAGGCAAACGCUAUGGUGAAGGCAUAGUCAAGGGAGGGGCGAAAGUCACACAAACCGG, which reverse-splicing fitness is on record?
A: The reverse-splicing fitness was 0.00616.

Q: For GUGCCUUGCGCCGGGAAACCACGCAAGGGAUGGUGUCAAAUUCGGCGAAACCUAAGCGCCCGCCCGGGCGUAUGGCAACGCAGAGCCAAGCUUCGGCGCCUGCGCCGAUGGAGGUGUAGAGACUAGACGGCACCCACCUAAGGCAAACGCUAUGGUGAAGGCAUAGUCGAGGGAGUGGCGAAAGUCACACAAACCGG, which reverse-splicing fitness is on record?
A: Its reverse-splicing fitness is 0.00926.

Q: For GUGCCUUGCGCCGGGAAACCACGCAAGGGAUGGUGUCAAAUUCGGCGAAACCUAAGCGCCCGCCCGGGCGUAUGGCAACGCAGAGCCAAGCUUCGGCGCCUGCGCCGAUGGAGGUGUAGAGACUAGACGGCACCCACCUAAGGCAAACGCUAUGGUGAAGGCAUAGUCGAGGGAGAGGCGAAAGUCACACAAACCGG, which reverse-splicing fitness is on record?
A: Its reverse-splicing fitness is 0.0181.

Q: With GUGCCUUGCGCCGGGAAACCACGCAAGGGAUGGUGUCAAAUUCGGCGAAACCUAAGCGCCCGCCCGGGCGUAUGGCAACGCAGAGCCAAGCUUCGGCGCCUGCGCCGAUGGAGGUGUAGAGACUAGACGGCACCCACCUAAGGCAAACGCUAUGGUGAAGGCAUAGUCGAGGGAGCGGCGAAAGUCACACAAACCGG as the variant, how does the reverse-splicing fitness read?
A: Its reverse-splicing fitness is 0.0207.

Q: Which reverse-splicing fitness does the source give for GUGCCUUGCGCCGGGAAACCACGCAAGGGAUGGUGUCAAAUUCGGCGAAACCUAAGCGCCCGCCCGGGCGUAUGGCAACGCAGAGCCAAGCUUCGGCGCCUGCGCCGAUGGAGGUGUAGAGACUAGACGGCACCCACCUAAGGCAAACGCUAUGGUGAAGGCAUAGUCGAGGGAGGGGCGAAAGUCACACAAACCGG here?
A: The reverse-splicing fitness was 0.00548.

Q: Which reverse-splicing fitness does the source give for GUGCCUUGCGCCGGGAAACCACGCAAGGGAUGGUGUCAAAUUCGGCGAAACCUAAGCGCCCGCCCGGGCGUAUGGCAACGCAGAGCCAAGCUUCGGCGCCUGCGCCGAUGGAGGUGUAGAGACUAGACGGCACCCACCUAAGGCAAACGCUAUGGUGAAGGCAUAGUCUAGGGAGUGGCGAAAGUCACACAAACCGG here?
A: Its reverse-splicing fitness is 0.0132.

Q: For GUGCCUUGCGCCGGGAAACCACGCAAGGGAUGGUGUCAAAUUCGGCGAAACCUAAGCGCCCGCCCGGGCGUAUGGCAACGCAGAGCCAAGCUUCGGCGCCUGCGCCGAUGGAGGUGUAGAGACUAGACGGCACCCACCUAAGGCAAACGCUAUGGUGAAGGCAUAGUCUAGGGAGAGGCGAAAGUCACACAAACCGG, which reverse-splicing fitness is on record?
A: Its reverse-splicing fitness is 0.0153.

Q: With GUGCCUUGCGCCGGGAAACCACGCAAGGGAUGGUGUCAAAUUCGGCGAAACCUAAGCGCCCGCCCGGGCGUAUGGCAACGCAGAGCCAAGCUUCGGCGCCUGCGCCGAUGGAGGUGUAGAGACUAGACGGCACCCACCUAAGGCAAACGCUAUGGUGAAGGCAUAGUCUAGGGAGCGGCGAAAGUCACACAAACCGG as the variant, how does the reverse-splicing fitness read?
A: The reverse-splicing fitness was 0.0142.

Q: With GUGCCUUGCGCCGGGAAACCACGCAAGGGAUGGUGUCAAAUUCGGCGAAACCUAAGCGCCCGCCCGGGCGUAUGGCAACGCAGAGCCAAGCUUCGGCGCCUGCGCCGAUGGAGGUGUAGAGACUAGACGGCACCCACCUAAGGCAAACGCUAUGGUGAAGGCAUAGUCUAGGGAGGGGCGAAAGUCACACAAACCGG as the variant, how does the reverse-splicing fitness read?
A: The reverse-splicing fitness was 0.00547.

Q: With GUGCCUUGCGCCGGGAAACCACGCAAGGGAUGGUGUCAAAUUCGGCGAAACCUAAGCGCCCGCCCGGGCGUAUGGCAACGCAGAGCCAAGCUUCGGCGCCUGCGCCGAUGGAGGUGUAGAGACUAGACGGCACCCACCUAAGGCAAACGCUAUGGUGAAGGCAUAGUCCAGGGAGAGGCGAAAGUCACACAAACCGG as the variant, how does the reverse-splicing fitness read?
A: Its reverse-splicing fitness is 0.189.

Q: Which reverse-splicing fitness does the source give for GUGCCUUGCGCCGGGAAACCACGCAAGGGAUGGUGUCAAAUUCGGCGAAACCUAAGCGCCCGCCCGGGCGUAUGGCAACGCAGAGCCAAGCUUCGGCGCCUGCGCCGAUGGAGGUGUAGAGACUAGACGGCACCCACCUAAGGCAAACGCUAUGGUGAAGGCAUAGUCCAGGGAGCGGCGAAAGUCACACAAACCGG here?
A: The reverse-splicing fitness was 0.262.

Q: Which reverse-splicing fitness does the source give for GUGCCUUGCGCCGGGAAACCACGCAAGGGAUGGUGUCAAAUUCGGCGAAACCUAAGCGCCCGCCCGGGCGUAUGGCAACGCAGAGCCAAGCUUCGGCGCCUGCGCCGAUGGAGGUGUAGAGACUAGACGGCACCCACCUAAGGCAAACGCUAUGGUGAAGGCAUAGUCCAGGGAGGGGCGAAAGUCACACAAACCGG here?
A: Its reverse-splicing fitness is 0.0537.
